Series [1] is described as follows: Loading experiments: encapsulation efficiency during PPSU20 self-assembly (fluorescence of supernatant). Type of series: physicochemical. As for the experimental part:
Loading experiments. For the loading of Nile red, nanogels were prepared using pure water and Nile red-containing (0.1 mg/mL) DMSO solutions of PPSU20. For the loading of water-soluble drugs, aqueous solutions of FITC (0.05 mg/mL), doxorubicin hydrochloride (1 mg/mL), dextran (1 mg/mL), albumin (various concentrations), GFP (0.2 mg/mL), RNA (0.2 mg/mL), DNA (0.2 mg/mL), and DMSO solutions of PPSU20 (25 mg/mL) were used. Typically, 100 μL of the corresponding aqueous solution were mixed stepwise (10 μL/step or 100 μL/step) with 50 μL of PPSU20 solution under vortex, then another 400 μL of water was added. After centrifugation at 16000×g for 10 min, fluorescence of the supernatant was measured and the encapsulation efficiencies were calculated.

Series [2] is described as follows: PPSU nanogel biodistribution and toxicity after subcutaneous injection. The series is classed as in vivo. Particulars: mice, s.c. injection, 48 h, NIRF/IVIS. As for the experimental part: Assessment of PPSU NBM biodistribution and toxicity: Preliminary assessment of vesicular PPSU nanogel biodistribution 48 h after subcutaneous (s.c.) injection (relevant for vaccination) was performed using near infrared fluorescence (NIRF) agent cardiogreen (ICG) as previously published by the Scott lab^1.

A short description of series [3]: Solubility tests using PPSU20 crystals in water and common organic solvents. Type of series: physicochemical. Particulars: in words. The source says: PPSU can be synthesized from complete oxidation of poly(propylene sulfide) (PPS) (14, 15), which is known for its hydrophobic—hydrophilic transition upon oxidation (16-18). However, complete oxidation of PPS had not been previously achieved, since standard oxidation of PPS generates random copolymers of poly(propylene sulfoxide)-co-poly(propylene sulfone) (19). We successfully synthesized PPSU20 (20 sulfones, FIG. 5) using an atypically high concentration of H2O2. Highly concentrated H2O2 was generated in situ upon vacuum evaporation during the oxidizing reaction. […] Given that the chemical structure of PPSU (FIG. 1a) is characterized by a positively charged backbone with negatively charged pendent oxygen atoms (20), electrostatic repulsion among oxygen atoms (21) was expected to result in weak inter- and intra-chain associations.

A short description of series [4]: Adsorption of FITC-BSA by preformed PPSU20 vesicular nanogels. Type of series: physicochemical. The settings on record: fluorescence in 0.2 N NaOH. As for the experimental part:
PPSU20 vesicular nanogels were prepared by mixing 100 μL of water or 100 μL of aqueous FITC-BSA (1.0 mg/mL) solution with 100 μL of PPSU20 solution (25 mg/mL in DMSO) under vortex, followed by the addition of 1000 μL of water. Nanogels were collected by centrifugation and purified by 2 rounds of resuspension and centrifugation in 1000 μL of water. The preformed blank vesicular nanogels were further incubated with 100 μL of aqueous FITC-BSA (1.0 mg/mL) solution overnight, giving FITC-BSA-adsorbed nanogels after removal of free FITC-BSA by three rounds of centrifugation and resuspension in water. Blank nanogels, FITC-BSA-loaded nanogels, and FITC-BSA-adsorbed nanogels were resuspened in 1000 μL of water for fluorescence measurements or as the stocking solutions for fluorescence quantitative analysis in sodium hydroxide solution (0.2 N).

For another series, the target named is T1, trypsin protease (Sus scrofa, UniProt P00761).
T1 construct: purchased Promega
T1 sequence (P00761 9-231): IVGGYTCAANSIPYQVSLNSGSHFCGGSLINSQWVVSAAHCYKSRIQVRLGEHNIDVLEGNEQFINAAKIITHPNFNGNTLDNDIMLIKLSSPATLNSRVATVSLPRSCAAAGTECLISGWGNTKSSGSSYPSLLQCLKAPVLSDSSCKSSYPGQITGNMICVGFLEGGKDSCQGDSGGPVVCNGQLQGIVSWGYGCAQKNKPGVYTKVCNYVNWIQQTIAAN
Kind of series: Trypsin digestion of FITC-BSA-loaded PPSU20 vesicular nanogels. Type of series: biochemical. Particulars: overloaded 10 mg/mL sample; trypsin 2 μg/mL, 24 h, 37° C. As for the experimental part:
Trypsin digestion of FITC-BSA-loaded PPSU20 vesicular nanogels. DMSO solutions of PPSU20 (200 μL, 25 mg/mL) were hydrated using 800 μL of aqueous FITC-BSA solutions (0, 0.1, 1.0, 10.0 mg/mL). DMSO was removed by dialysis after self-assembly. Negatively stained FITC-BSA-loaded PPSU20 vesicular nanogels were characterized by TEM. After removal of unloaded FITC-BSA by three rounds of centrifugation and resuspension in phosphate-buffered saline, FITC-BSA-loaded PPSU20 vesicular nanogels were subjected to digestion with trypsin protease (2 μg/mL; Trypsin Gold, Promega) for 24 h at 37° C., 80 rpm. Undigested FITC-BSA-loaded PPSU20 vesicular nanogels (i.e. no protease treatment) were included as a control. After 24 h incubation with trypsin, FITC fluorescence (Ex=490 nm, Em=525 nm) was quantified in triplicate using a SpectraMax M3 microplate reader (Molecular Devices). The percentage increase in FITC fluorescence (i.e., 100×(F(+)−F(−))/F(−)) after proteolysis was calculated, where F(+) is the fluorescence after protease treatment and F(−) is referred to the fluorescence in the absence of protease treatment.

A short description of series [5]: PPSU20 vesicular nanogels formed with a concentration series of FITC-BSA (DLS, zeta potential, encapsulation). Type of series: physicochemical.
Setting [6] is: 10 μL/step, mass ratio (drug/PPSU20) 0.004.
[7] abbreviates: 100 μL/step, mass ratio (drug/PPSU20) 0.004.
[8] abbreviates: 10 μL/step, mass ratio (drug/PPSU20) 0.08.
[9] abbreviates: 100 μL/step, mass ratio (drug/PPSU20) 0.08.

Take fluorescein isothiocyanate [FITC]: the Encapsulation efficiency in series [1] (setting [6]) and in series [1] (setting [7]) was above 99% in each case.

For Dextran, the Encapsulation efficiency in series [1] (setting [8]) and in series [1] (setting [9]) was above 96% throughout.

Regarding `CC1(C)C(/C=C/C=C/C=C/C=C2\N(CCCCS(=O)(=O)[O-])c3ccc4ccccc4c3C2(C)C)=[N+](CCCCS(=O)(=O)[O-])c2ccc3ccccc3c21.[Na+]` [ICG], the “biodistribution (organs)” value in series [2] is “heart, brain and kidneys”.

With `CS(C)(=O)=O` [dimethylsulfone], the Solubility in water entry in series [3] is on record as “good water-solubility”.

For `COc1cccc2c1C(=O)c1c(O)c3c(c(O)c1C2=O)C[C@@](O)(C(=O)CO)C[C@@H]3O[C@H]1C[C@H](N)[C@H](O)[C@H](C)O1.Cl` [DOX/HCl, doxorubicin hydrochloride], the Encapsulation efficiency is reported as above 96% in series [1] (setting [8]) and above 97% in series [1] (setting [9]).

Regarding “Albumin: FITC-labeled albumin (FITC-BSA), a model protein; Table 1 entries 5 to 8”, the Encapsulation efficiency in series [1] (setting [8]) was above 99%; in series [1] (10 μL/step, mass ratio (drug/PPSU20) 0.4), above 99%; in series [1] (10 μL/step, mass ratio (drug/PPSU20) 0.8), above 96%; in series [1] (10 μL/step, mass ratio (drug/PPSU20) 1.2), 83%; in series [1] (setting [9]), above 99%; in series [1] (100 μL/step, mass ratio (drug/PPSU20) 0.4) it was above 99%. The Encapsulation efficiency is on record as above 96% in series [1] (100 μL/step, mass ratio (drug/PPSU20) 0.8); 80% in series [1] (100 μL/step, mass ratio (drug/PPSU20) 1.2); 97.8% in series [4] (FITC-BSA-loaded vesicles, Em=518 nm). The “encapsulation capacity (w/w)” value in series [1] (Table 1, entry 5 to 7) is recorded as “up to 80%”. The “encapsulation of protein molecules from aqueous solutions” value in series [1] (Table 1, entry 5 to 7) was around 100%. Besides, the EE result is recorded as “Over 80%” in series [1] (nanoparticles contained 20% more protein than polymer by mass (Table 1, entry 8)); 45% in series [5] (in the presence of 10 mg/mL of protein); “approximately 100%” in series [5] (loading of FITC-BSA at 0.1 mg/mL); “approximately 100%” in series [5] (loading of FITC-BSA at 1.0 mg/mL). The adsorption efficiency in series [4] (preformed blank vesicles incubated with FITC-BSA overnight) was found to be 6.0%. Besides, the “encapsulated FITC-BSA accessible to cleavage” value with trypsin protease is 30-35%. For the same molecule, the “protein by mass in nanogels” value in series [5] (10 mg/mL of protein, 3.6 mg FITC-BSA/5 mg PPSU) stood at 72%.

With `CCN(CC)c1ccc2nc3c4ccccc4c(=O)cc-3oc2c1` [Nile red], the Encapsulation efficiency in series [1] (setting [6]) is given as above 96%; in series [1] (setting [7]), above 98%.

These data come from patent US12472152B2, “Molecular entrapment via homopolymer self-assembly” (Northwestern University, priority 2019, dated 2025).
